This note sets out measurements from the FLAb antibody collection (doi:10.7554/elife.23156).

Bounds are passed on as bounds.

First the molecules themselves.
B1: scFv; the commonest letter at each place (parent)
chain 1: EVKLDETGGGLVQPGRPMKLSCVASGFTFSDYWMNWVRQSPEKGLEWVAQIRNKPYNYETYYSDSVKGRFTISRDDSKSSVYLQMNNLRVEDMGIYYCTGSYYGMDYWGQGTSVTVS
chain 2: DVVMTQTPLSLPVSLGDQASISCRSSQSLVHSNGNTYLRWYLQKPGQSPKVLIYKVSNRFSGVPDRFSGSGSGTDFTLKISRVEAEDLGVYFCSQSTHVPWTFGGGTKLEIK

The data set “fluorescein” covers variants of B1. Briefly: Kd (Tite-Seq). As to conditions: with fluorescein; format: scFv 4-4-20, heavy + light.
Data set [1] covers variants of B1. Briefly: yeast surface expression (ratio to wild type); higher = more expressed. As to conditions: format: scFv 4-4-20, heavy + light.

Take chain 1 G104C M105P: in the data set with fluorescein, the Kd – broadly, a measure of binding affinity in units of concentration – was not below 10 µM. Also, the yeast surface expression in data set [1] is 0.256.

On to chain 1 G104C M105I, for which the Kd in the data set with fluorescein is not below 10 µM. The yeast surface expression in data set [1] was 0.349.

Turning to chain 1 G100T G104V D106E, the Kd in the data set with fluorescein is not below 10 µM. Also, the yeast surface expression in data set [1] is 0.398.

With chain 1 G100W G109S, in the data set with fluorescein, the Kd was not below 10 µM. Besides, the yeast surface expression in data set [1] came out at 0.43.

For the variant chain 1 G100V W108N, in the data set with fluorescein, the Kd was not below 10 µM. For the same variant, the yeast surface expression in data set [1] stood at 0.468.

chain 1 G100V W108V: the dissociation constant Kd in the data set with fluorescein was 0.000846 µM. Besides, the yeast surface expression in data set [1] was 0.892.

Turning to chain 1 G100V W108C, the Kd with fluorescein amounted to 5.96 µM. In data set [1], the yeast surface expression was determined as 0.628.

For chain 1 G104V G109W, the Kd in the data set with fluorescein is not below 10 µM. Moreover, in data set [1], the yeast surface expression is 1.57.

chain 1 G104C Y107P W108I: in the data set with fluorescein, the Kd is not below 10 µM. Further, in data set [1], the yeast surface expression worked out at 0.214.

For chain 1 G100T Y103E, the Kd in the data set with fluorescein was not below 10 µM. Besides, the yeast surface expression in data set [1] was 1.28.

With chain 1 G104N W108M G109E, the Kd in the data set with fluorescein is not below 10 µM. Moreover, the yeast surface expression in data set [1] was found to be 0.217.

As for chain 1 G100Y G104C, in the data set with fluorescein, the Kd is not below 10 µM. For the same variant, in data set [1], the yeast surface expression amounted to 0.183.

Regarding chain 1 G104E W108G, in the data set with fluorescein, the Kd was not below 10 µM. The yeast surface expression in data set [1] is 0.296.

For chain 1 G104E W108S, the Kd with fluorescein was not below 10 µM. Further, in data set [1], the yeast surface expression was found to be 0.331.

On to chain 1 G104P Y107M G109M, for which, in the data set with fluorescein, the Kd was not below 10 µM. The yeast surface expression in data set [1] came to 0.257.

Turning to chain 1 G100Y G109W, the equilibrium dissociation constant (Kd) with fluorescein is not below 10 µM. Besides, in data set [1], the yeast surface expression stood at 0.26.

Turning to chain 1 G100Y G109P, the Kd with fluorescein was not below 10 µM. The yeast surface expression in data set [1] came to 0.22.

As to chain 1 G100Y G109L, the Kd with fluorescein is not below 10 µM. In data set [1], the yeast surface expression is 0.306.

With chain 1 G100W D106S W108L, the Kd with fluorescein is not below 10 µM. In data set [1], the yeast surface expression stood at 0.243.

Regarding chain 1 G104K W108Q, in the data set with fluorescein, the Kd is not below 10 µM. The yeast surface expression in data set [1] was found to be 0.294.

For the variant chain 1 G100V, the Kd with fluorescein is not below 10 µM. Besides, the yeast surface expression in data set [1] was found to be 0.97.

chain 1 G100Y: the Kd with fluorescein is not below 10 µM. The yeast surface expression in data set [1] came to 0.606.

Consider chain 1 G100S, for which the Kd with fluorescein was 0.0038 µM. The yeast surface expression in data set [1] is 0.938.

Turning to chain 1 G100W, the Kd in the data set with fluorescein was not below 10 µM. Further, the yeast surface expression in data set [1] worked out at 0.491.

With chain 1 G100T, in the data set with fluorescein, the equilibrium dissociation constant (Kd) stood at 0.921 µM. Moreover, the yeast surface expression in data set [1] was found to be 0.994.

Regarding chain 1 G104V D106P, the Kd with fluorescein was not below 10 µM. In data set [1], the yeast surface expression was 0.232.

For the variant chain 1 G104W M105R, the Kd with fluorescein is not below 10 µM. Besides, the yeast surface expression in data set [1] stood at 0.484.

As for chain 1 G104Y M105N, the Kd with fluorescein was not below 10 µM. Also, in data set [1], the yeast surface expression stood at 1.13.

In the case of chain 1 G104Y M105L, the Kd with fluorescein is not below 10 µM. Besides, in data set [1], the yeast surface expression is 0.44.

Regarding chain 1 G104A D106Q Y107E, the Kd with fluorescein is not below 10 µM. Besides, in data set [1], the yeast surface expression came to 0.519.

Take chain 1 G100V Y107N G109P: the Kd with fluorescein is not below 10 µM. The yeast surface expression in data set [1] turned out to be 0.341.

Turning to chain 1 G104L M105L, in the data set with fluorescein, the Kd was not below 10 µM. The yeast surface expression in data set [1] was 0.303.

Consider chain 1 G100T Y102H D106M, for which the equilibrium dissociation constant (Kd) in the data set with fluorescein is not below 10 µM. Moreover, the yeast surface expression in data set [1] worked out at 1.02.

Consider chain 1 G104L G109K, for which the Kd with fluorescein was not below 10 µM. Further, the yeast surface expression in data set [1] stood at 0.179.

For chain 1 G104N G109Y, in the data set with fluorescein, the Kd was not below 10 µM. Moreover, in data set [1], the yeast surface expression turned out to be 0.305.

Turning to chain 1 G104I G109K, the Kd in the data set with fluorescein is not below 10 µM. Also, the yeast surface expression in data set [1] was 0.246.

As to chain 1 G104D G109V, the Kd in the data set with fluorescein was not below 10 µM. The yeast surface expression in data set [1] came out at 0.266.

Consider chain 1 G104D G109L, for which, in the data set with fluorescein, the Kd was not below 10 µM. Also, in data set [1], the yeast surface expression was 0.236.

For chain 1 G100Y Y103C, the Kd with fluorescein is not below 10 µM. Moreover, in data set [1], the yeast surface expression stood at 0.567.

As to chain 1 G104Q, the Kd with fluorescein is not below 10 µM. In addition, in data set [1], the yeast surface expression stood at 0.824.

In the case of chain 1 G104S, the Kd with fluorescein is not below 10 µM. The yeast surface expression in data set [1] turned out to be 0.799.

With chain 1 G104Y, in the data set with fluorescein, the Kd is not below 10 µM. Further, the yeast surface expression in data set [1] worked out at 0.464.

In the case of chain 1 G104V, in the data set with fluorescein, the Kd was not below 10 µM. Also, the yeast surface expression in data set [1] is 0.536.

Turning to chain 1 G104W, the Kd in the data set with fluorescein was not below 10 µM. Besides, the yeast surface expression in data set [1] turned out to be 0.587.

Turning to chain 1 G104T, in the data set with fluorescein, the Kd is not below 10 µM. Moreover, the yeast surface expression in data set [1] is 0.599.

chain 1 G104M: the equilibrium dissociation constant (Kd) in the data set with fluorescein was not below 10 µM. Also, in data set [1], the yeast surface expression amounted to 0.571.

Regarding chain 1 G104F, the Kd with fluorescein was not below 10 µM. Moreover, in data set [1], the yeast surface expression is 0.597.

For the variant chain 1 G104D, in the data set with fluorescein, the Kd is not below 10 µM. Besides, the yeast surface expression in data set [1] was determined as 0.918.

With chain 1 G104N, the Kd with fluorescein is not below 10 µM. Besides, in data set [1], the yeast surface expression is 1.1.

On to chain 1 G104L, for which the Kd with fluorescein is not below 10 µM. For the same variant, in data set [1], the yeast surface expression was found to be 0.556.

On to chain 1 G104A, for which the Kd with fluorescein is not below 10 µM. Further, the yeast surface expression in data set [1] was determined as 0.693.

As for chain 1 G104I, the Kd with fluorescein was not below 10 µM. In addition, the yeast surface expression in data set [1] was 0.325.

With chain 1 G104P, the Kd in the data set with fluorescein was not below 10 µM. Also, in data set [1], the yeast surface expression was 0.859.

As for chain 1 G104K, in the data set with fluorescein, the Kd is not below 10 µM. Also, the yeast surface expression in data set [1] was found to be 0.557.

For the variant chain 1 G104R, in the data set with fluorescein, the Kd is not below 10 µM. Moreover, the yeast surface expression in data set [1] was determined as 0.626.

chain 1 G104E: the Kd with fluorescein was not below 10 µM. Further, in data set [1], the yeast surface expression worked out at 1.04.

Turning to chain 1 G104H, the Kd with fluorescein is not below 10 µM. Also, the yeast surface expression in data set [1] was 0.716.

For chain 1 G104C, the Kd with fluorescein is not below 10 µM. Moreover, in data set [1], the yeast surface expression came out at 0.578.
